Laboratory results from patent US20120039846A1.

Experiments:
[1] = molecular target: H77c E2 with substitutions at Val536 (row 10), Phe537 (row 11) and Asn540 (row 12); experiment: ELISA on GNA-captured mutant E2 from 293T lysates
[2] = molecular target: HCV envelope glycoprotein E2, genotype 1a (hepatitis C virus genotype 1a) (UniProt P27958); experiment: cell-based or functional assay
[3] = molecular target: HCV envelope glycoprotein E2, genotype 1b (hepatitis C virus genotype 1b); experiment: CD81 capture ELISA; 1b E1E2 lysate preincubated with antibody (15 µg/ml), added to CD81-coated wells, detected with biotinylated CBH-4D
[4] = molecular target: H77c E2 mutant, Ala531 substituted (hepatitis C virus genotype 1a, strain H77c) (UniProt P27958); experiment: ELISA on GNA-captured mutant E2 from 293T lysates
[5] = molecular target: H77c E2 mutant, Asn532 substituted (hepatitis C virus genotype 1a, strain H77c) (UniProt P27958); experiment: ELISA on GNA-captured mutant E2 from 293T lysates
[6] = molecular target: H77c E2 mutant, Asp533 substituted (hepatitis C virus genotype 1a, strain H77c) (UniProt P27958); experiment: ELISA on GNA-captured mutant E2 from 293T lysates
[7] = molecular target: H77c E2 mutant, Pro525 substituted (hepatitis C virus genotype 1a, strain H77c) (UniProt P27958); experiment: ELISA on GNA-captured mutant E2 from 293T lysates
[8] = molecular target: H77c E2 mutant, Thr534 substituted (hepatitis C virus genotype 1a, strain H77c) (UniProt P27958); experiment: ELISA on GNA-captured mutant E2 from 293T lysates
[9] = molecular target: HCV envelope glycoprotein E2, genotype 1b (hepatitis C virus genotype 1b); experiment: competition ELISA on GNA-captured E2 of 1b HCVpp lysate; competing antibody 20 ug/ml; competitor: biotinylated CBH-7 at 2 ug/ml
[10] = molecular target: H77c E2 mutant, Asn540 replaced by alanine (hepatitis C virus genotype 1a, strain H77c) (UniProt P27958); experiment: ELISA on GNA-captured mutant E2 from 293T lysates
[11] = molecular target: H77c E2 mutant, Asp535 replaced by alanine (hepatitis C virus genotype 1a, strain H77c) (UniProt P27958); experiment: ELISA on GNA-captured mutant E2 from 293T lysates
[12] = molecular target: H77c E2 mutant, Gly523 replaced by alanine (hepatitis C virus genotype 1a, strain H77c) (UniProt P27958); experiment: ELISA on GNA-captured mutant E2 from 293T lysates
[13] = molecular target: H77c E2 mutant, Gly530 replaced by alanine (hepatitis C virus genotype 1a, strain H77c) (UniProt P27958); experiment: ELISA on GNA-captured mutant E2 from 293T lysates
[14] = molecular target: H77c E2 mutant, Trp529 replaced by alanine (hepatitis C virus genotype 1a, strain H77c) (UniProt P27958); experiment: ELISA on GNA-captured mutant E2 from 293T lysates
[15] = molecular target: H77c E2 mutant D658A (hepatitis C virus genotype 1a, strain H77c) (UniProt P27958); experiment: alanine replacement, ELISA
[16] = molecular target: H77c E2 mutant D698A (hepatitis C virus genotype 1a, strain H77c) (UniProt P27958); experiment: alanine replacement, ELISA
[17] = molecular target: H77c E2 mutant F679A (hepatitis C virus genotype 1a, strain H77c) (UniProt P27958); experiment: alanine replacement, ELISA
[18] = molecular target: H77c E2 mutant I696A (hepatitis C virus genotype 1a, strain H77c) (UniProt P27958); experiment: alanine replacement, ELISA
[19] = molecular target: H77c E2 mutant L692A (hepatitis C virus genotype 1a, strain H77c) (UniProt P27958); experiment: alanine replacement, ELISA
[20] = molecular target: H77c E2 mutant R657A (hepatitis C virus genotype 1a, strain H77c) (UniProt P27958); experiment: alanine replacement, ELISA

Q: CBH-4G (antibody) was tested. Which percent decrease in binding vs wild type [1] did it give?
A: Its percent decrease in binding vs wild type is 70 to 95%.

Q: Which IC50 of 1a HCVpp neutralization [2] does the source give for CBH-5 (antibody) here?
A: The IC50 of 1a HCVpp neutralization was 4 µg/mL.

Q: And the neutralization of 1a HCVpp at 20 µg/ml [2]?
A: The neutralization of 1a HCVpp at 20 µg/ml was 60%.

Q: What about the percent reduction of E2 binding to CD81 [3] of the same substance?
A: Its percent reduction of E2 binding to CD81 is > 90%.

Q: With HC-12 (antibody) as the substance, how does the percent change in binding vs wild type [4] read?
A: Its percent change in binding vs wild type is < 20%.

Q: What about the percent change in binding vs wild type [5] of the same substance?
A: Its percent change in binding vs wild type is < 20%.

Q: And the percent change in binding vs wild type [6]?
A: The percent change in binding vs wild type was < 20%.

Q: And the percent change in binding vs wild type [7]?
A: The percent change in binding vs wild type was < 20%.

Q: What about the percent change in binding vs wild type [8] of the same substance?
A: The percent change in binding vs wild type was < 20%.

Q: What does the source list for human monoclonal antibody CBH-23?
A: percent competition [9]: > 90%; percent reduction of E2 binding to CD81 [3]: > 90%

Q: With human monoclonal antibody HC-1 as the substance, how does the percent change in binding vs wild type [4] read?
A: The percent change in binding vs wild type was < 20%.

Q: What about the percent change in binding vs wild type [5] of the same substance?
A: The percent change in binding vs wild type was < 20%.

Q: And the percent of wild-type binding (% of wild type) [10]?
A: The percent of wild-type binding (% of wild type) was < 10.

Q: And the percent change in binding vs wild type [6]?
A: The percent change in binding vs wild type was < 20%.

Q: What about the percent decrease in binding vs wild type [11] of the same substance?
A: The percent decrease in binding vs wild type was > 80%.

Q: What about the percent decrease in binding vs wild type [12] of the same substance?
A: Its percent decrease in binding vs wild type is 60%.

Q: And the percent decrease in binding vs wild type [13]?
A: Its percent decrease in binding vs wild type is > 80%.

Q: What about the percent of wild-type binding (% of wild type) [13] of the same substance?
A: The percent of wild-type binding (% of wild type) was < 10.

Q: What about the percent change in binding vs wild type [7] of the same substance?
A: The percent change in binding vs wild type was < 20%.

Q: What about the percent change in binding vs wild type [8] of the same substance?
A: Its percent change in binding vs wild type is < 20%.

Q: And the percent of wild-type binding (% of wild type) [14]?
A: Its percent of wild-type binding (% of wild type) is < 10.

Q: What about the percent reduction of E2 binding to CD81 [3] of the same substance?
A: The percent reduction of E2 binding to CD81 was > 90%.

Q: Which results are given for human monoclonal antibody HC-3?
A: percent decrease in binding [15]: > 90%; percent decrease in binding [16]: > 90%; percent decrease in binding [17]: > 90%; percent decrease in binding [18]: > 90%; percent decrease in binding [19]: > 90%; percent decrease in binding [20]: > 90%

Q: Which IC50 of 1a HCVpp neutralization [2] does the source give for human monoclonal antibody HC-11 here?
A: Its IC50 of 1a HCVpp neutralization is 0.9 µg/mL.

Q: And the percent decrease in binding vs wild type [12]?
A: The percent decrease in binding vs wild type was 60%.

Q: What about the percent decrease in binding vs wild type [14] of the same substance?
A: Its percent decrease in binding vs wild type is 44%.

Q: And the percent reduction of E2 binding to CD81 [3]?
A: The percent reduction of E2 binding to CD81 was > 90%.
